System: MS2 coat protein
Assay: apparent KD of MS2 coat protein; designed switch direction (-1 OFF switch, 1 ON switch): 1; higher = weaker reporter binding
Summary of the method: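 On Illumina chips, designed RNA switches with common flanks were made by stalled E. coli RNA polymerase. Titrations with SNAP-549-labelled MS2 coat protein, doubling from 0.7 or 1.5 nM to 3 µM, were done with no input, with 200 uM small-molecule ligand, or with an oligonucleotide input. Apparent KD is the median per design over clusters, from curve fits of normalised cluster fluorescence.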

[1] = Eterna round: R95, input ligand: FMN 200 uM
[2] = Eterna round: R95, input ligand: microRNA oligo, concentration not stated
[3] = Eterna round: R95, input ligand: none
[4] = input ligand: microRNA oligo, concentration not stated

Sequence	apparent KD of MS2 coat protein [1] [nM]	apparent KD of MS2 coat protein [2] [nM]	apparent KD of MS2 coat protein [3] [nM]	apparent KD of MS2 coat protein (input ligand: FMN 200 uM) [nM]	apparent KD of MS2 coat protein [4] [nM]	apparent KD of MS2 coat protein (input ligand: none) [nM]
GUUAAACAUGAGGAUCACCCAUGUAAUAAUAUGGGAGGAUAUCAGAAAGUAUGUAUGAAAUGAGAAGGCCUAAUUG [Mat - Same State 1 - Mod of Eli - D78] (puzzle: Same State 1)	57.9	154	124	–	–	–
GUUAAACAUGAGGAUCACCCAUGUAAUAAUAUGGGAGGAUAUCAGAAAUUAUUUAUUAAAUGAGAAGGCCUAAUUG [Mat - Same State 1 - Mod of Eli - D81] (puzzle: Same State 1)	53.6	321	150	–	–	–
GUUAAACAUGAGGAUCACCCAUGUCAAUGUAGUCGAGGAUAUGGGCAGCUAUGAGGCGUACUAGAAGGCGAAAAGU [Mat - Same State 1 - Mod of JL - D13] (puzzle: Same State 1)	117	260	535	–	–	–
GUUACAUGAGGAUCACCCAUGUAUGUGUGGGAGUAAGUGUCUUAGGAUAUCUAGUAUGUAAUUUAAGAGAAGGAAGAUUGUUGU [JMF's solution 56] (Eterna round: R96, puzzle: Same State NG 3)	–	–	–	217	264	261
GUUACAUGAGGAUCACCCAUGUAUGUGUGGGAGUAAGUGUCUUAGGAUAUCUAGUAUUUAAGUUAAGAGAAGGAAGAUUGUUGU [JMF's solution 62] (Eterna round: R96, puzzle: Same State NG 3)	–	–	–	129	78	114
GUUACAUGAGGAUCACCCAUGUAUGUGUGGGAGUAAGUGUCUUAGGAUAUCUAGUAUUUAAUUUUAGAGAAGGAAGAUUGUUGU [JMF's solution 69] (Eterna round: R96, puzzle: Same State NG 3)	–	–	–	128	121	134
GUUACAUGAGGAUCACCCAUGUAUGUGUGGGAGUAAGUGUCUUAGGAUAUCUAUCAUUUAAUUCAAGAGAAGGAAGAUUGUUGU [JMF's solution 100] (Eterna round: R96, puzzle: Same State NG 3)	–	–	–	126	96.1	103
GUUACAUGAGGAUCACCCAUGUAUGUGUGGGAGUAAGUGUCUUAGGAUAUCUAUGAUUUAAUCUAAGAGAAGGAAGAUUGUUGU [JMF's solution 82] (Eterna round: R96, puzzle: Same State NG 3)	–	–	–	114	76.8	95.3
GUUACAUGAGGAUCACCCAUGUAUGUGUGGGAGUAAGUGUCUUAGGAUAUCUAUUAUUUAAAUUAAGAGAAGGAAGAUUGUUGU [JMF's solution 7] (Eterna round: R96, puzzle: Same State NG 3)	–	–	–	–	93	–
GUUACAUGAGGAUCACCCAUGUAUGUGUGGGAGUAAGUGUCUUAGGAUAUCUGUUAUUUAACUUAAGAGAAGGAAGAUUGUUGU [JMF's solution 43] (Eterna round: R96, puzzle: Same State NG 3)	–	–	–	108	65.4	105
UAAACUAGUUAUAGUGUAAUGCAUAUUAUACAUGAGGAUCACCCAUGUGAUGGUUGGUAUGAUUUUGUUCGUCUUAA [JR_SHM208A_Sub079] (puzzle: Sensor for hsa-mir-208a)	148	61.9	232	–	–	–
UAAACUUCUUUUAGUGUAAUGCAAGUGAUACAUGAGGAUCACCCAUGUUUUGGAUCGUGUUAUUUUGUUCGUCUUAA [JR_SHM208A_Sub077] (puzzle: Sensor for hsa-mir-208a)	33.2	30.3	42.9	–	–	–
UAAACUUCUUUUAGUGUAAUGCAUGUGAUACAUGAGGAUCACCCAUGUUUUGGUUCGUUUUAUUUUGUUCGUCUUAA [JR_SHM208A_Sub078] (puzzle: Sensor for hsa-mir-208a)	59.3	43.9	81.8	–	–	–
UAAAGAUAGCGAGGAUAUCGCGAGGAUCACCCGUGAGAAGGCGCAGAGCCGAGGAUCACCCGGCUGAUCCUGAGGAGGAGGUCA (Eterna round: R96, puzzle: Same State NG 1)	–	–	–	108	197	249
UAAAUACAUGAGGAUCACCCAUGUCAAAAGACAUGAGGAUAUGUACAGACUUCGGUCUGUACAGAAGGCAUGAAAA [salish99_ss1_r3_095] (Eterna round: R96, puzzle: Same State 1)	–	–	–	–	397	–
UAAAUACAUGAGGAUCACCCAUGUCAAAAGACAUGAGGAUAUGUACAGACUUCGGUCUGUACAGAAGGCAUGAAAA [salish99_ss1_r3_095] (puzzle: Same State 1)	43.6	708	890	–	–	–

Sequence	apparent KD of MS2 coat protein [1] [nM]	apparent KD of MS2 coat protein [2] [nM]	apparent KD of MS2 coat protein [3] [nM]	apparent KD of MS2 coat protein (input ligand: FMN 200 uM) [nM]	apparent KD of MS2 coat protein [4] [nM]	apparent KD of MS2 coat protein (input ligand: none) [nM]
UAACAGUACAAUUUAGAUCUACAUGAGGAUCACCCAUGUACUGAGGAUAUCAGCUCGAAUAGAGCUGAGAAGGCAGAAGAACUA [SSNG3/11-A1] (Eterna round: R96, puzzle: Same State NG 3)	–	–	–	35.8	127	203
UAACAGUACAAUUUAGAUCUACAUGAGGAUCACCCAUGUACUGAGGAUAUCAGCUCGAUUAGAGCUGAGAAGGCAGAAGAACUA [SSNG3/11-A2] (Eterna round: R96, puzzle: Same State NG 3)	–	–	–	48.5	173	344
UAAUGUUAGCGAGGAUAUCGUUUAUUGAAGUUACGAGAAGGCGCUCUUCUUACAUGAGGAUCACCCAUGUCUGUUUUGCAUGAU [JR_SSNG1_Sub068] (Eterna round: R96, puzzle: Same State NG 1)	–	–	–	–	50	–
UAAUGUUUGCGAGGAUAUCGUUUAUUGAAGUUACGAGAAGGCGCUCUUCUUACAUGAGGAUCACCCAUGUCUGUUUUGCAUGAU [JR_SSNG1_Sub069] (Eterna round: R96, puzzle: Same State NG 1)	–	–	–	44.4	56.8	81.5
UAAUUAAAGCAAGGAUAUCACGUCGAAUAGACGUGAGAAGGUGCUCCUUACAUGAGGAUCACCCAUGUAUAACAUGAAUAAUUA [SSNG1/10-B1] (Eterna round: R96, puzzle: Same State NG 1)	–	–	–	166	702	741
UAAUUAAGUCAAGGAUAUCACGUCGAAUAGACGUGAGAAGGUGACCAAUACAUGAGGAUCACCCAUGUAAUACAUGAAUAAUUA [SSNG1/12-B1] (Eterna round: R96, puzzle: Same State NG 1)	–	–	–	27.7	35.8	45.9
UAAUUAAGUCAAGGAUAUCACGUCGAUUAGACGUGAGAAGGUGAUUAAUACAUGAGGAUCACCCAUGUAAUACAUGAAUAAUUA [SSNG1/11-B2] (Eterna round: R96, puzzle: Same State NG 1)	–	–	–	37.1	61.4	76.1
UACAAACGCGGAGGAUAUGGGCGAGGCGCAGAGGUCUGCGUCAAAACAUGAGGAUCACCCAUGUCCCAGAAGGCCGCGCAAACU [Anorra] (Eterna round: R96, puzzle: Same State NG 2)	–	–	–	16.3	73.8	56.1
UACAAUCUAUCUGAGGAUAUCAUGAAAAAAACAUGAGGAUCACCCAUGUGCAGGAAAACUGCAUAUGAGAAGGCAGAUAGAUUGC [salish99_SS2_r3_008] (Eterna round: R96, puzzle: Same State 2)	–	–	–	–	458	–
UACAAUCUAUCUGAGGAUAUCAUGAAAAAAACAUGAGGAUCACCCAUGUGCAGGAAAACUGCAUAUGAGAAGGCAGAUAGAUUGC [salish99_SS2_r3_008] (puzzle: Same State 2)	34.1	806	1320	–	–	–
UACAAUCUAUCUGAGGAUAUCAUGAAAAAAACAUGAGGAUCACCCAUGUGCAGGAAAACUGCAUAUGAGAAGGCAGAUAGAUUGU [salish99_SS2_r3_006] (Eterna round: R96, puzzle: Same State 2)	–	–	–	–	585	–
UACAAUCUAUCUGAGGAUAUCAUGAAAAAAACAUGAGGAUCACCCAUGUGCAGGAAAACUGCAUAUGAGAAGGCAGAUAGAUUGU [salish99_SS2_r3_006] (puzzle: Same State 2)	32.4	971	1650	–	–	–
UACAAUCUAUCUGAGGAUAUCAUGAAAUAAACAUGAGGAUCACCCAUGUGCAGGAAAACUGCAUAUGAGAAGGCAGAUAGAUUGA [salish99_ss2_r3_018] (puzzle: Same State 2)	50.2	1130	1810	–	–	–
UACAAUCUAUCUGAGGAUAUCAUGAAGAAAACAUGAGGAUCACCCAUGUGCAGGAUAACUGCAAAUGAGAAGGCAGAUAGAUUGG [Mat - Same State 2 - Mod - D4] (puzzle: Same State 2)	12.9	17	24.6	–	–	–
UACAAUCUAUCUGAGGAUAUCAUGAAUUACACAUGAGGAUCACCCAUGUGCAGGAAAACUGCAUAUGAGAAGGCAGAUAGAUUGU [salish99_ss2_r3_065] (puzzle: Same State 2)	81	1060	1970	–	–	–
UACAAUCUAUCUGAGGAUAUCAUGAUUCUAACAUGAGGAUCACCCAUGUGCAGGAAAACUGCAUAUGAGAAGGCAGAUAGAUUGU [salish99_ss2_r3_072] (puzzle: Same State 2)	67.7	33.3	148	–	–	–
